Experiment [1] deals with T1, canine FcRn heterodimer (FCGRT large subunit p51 + beta-2-microglobulin), biotin-labeled (Canis lupus familiaris; Canis familiaris, biotin-labeled (site not stated; the chain carries an AviTag)).
T1 construct: also called FcRn/B2M; FcRn/β2M; not shown: AviTag, named only
T1 chain (part 1 of 2): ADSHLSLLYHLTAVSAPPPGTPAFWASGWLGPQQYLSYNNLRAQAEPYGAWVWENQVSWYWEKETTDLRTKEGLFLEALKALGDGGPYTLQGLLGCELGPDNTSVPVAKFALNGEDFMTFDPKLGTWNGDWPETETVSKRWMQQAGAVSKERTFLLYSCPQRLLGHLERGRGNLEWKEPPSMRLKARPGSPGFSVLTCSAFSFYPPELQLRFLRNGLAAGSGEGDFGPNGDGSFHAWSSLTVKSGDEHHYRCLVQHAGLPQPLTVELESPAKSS
T1 chain (part 2 of 2): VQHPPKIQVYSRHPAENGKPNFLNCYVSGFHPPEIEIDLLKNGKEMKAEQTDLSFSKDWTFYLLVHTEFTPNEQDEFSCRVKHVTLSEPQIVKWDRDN
Nature of the experiment: BLI (Octet HTX), biotinylated FcRn/B2M on streptavidin biosensors, analyte 500-7.8 nM, pH 7.4, 1:1 fit. As to the method:
(§1) The binding of antibodies and IgG Fc fusion proteins to FcRn proteins was determined by Octet™ HTX using Streptavidin (SA) biosensors. First, biotin-labeled […] was loaded onto pre-hydrated SA biosensors for 60 s at a concentration of 10 μg/mL. Second, the biosensors were placed into pH 6.0 TBS/Casein buffer for the blocking phase for 180 s. Third, for the association phase, FcRn/B2M loaded biosensors were placed into 2-fold serial dilutions from 500 nM down to 7.8 nM of antibody or IgG Fc fusion protein in pH 6.0 or 7.4 TBS/Casein buffer for 15 s. Finally, the biosensors were placed into either pH 6.0 or pH 7.4 TBS/Casein buffer for the dissociation phase for 60 s. Analysis was performed using Octet Data Analysis 12.0 software and curves were fitted using a 1:1 binding model.

The target in experiment [2] is T1, canine FcRn heterodimer (FCGRT large …). The experiment can be described thus: BLI (Octet HTX), biotinylated FcRn/B2M on streptavidin biosensors, analyte 500-7.8 nM, pH 6.0, 1:1 fit. As to the method:
as §1

This is an account of results in patent US20250197514A1 (INTERVET, published 2025).

B1: cIL-13Ra2-Fc (unsubstituted canine IL-13Rα2 ECD - cIgG-B hinge - cIgG-B Fc fusion protein) (Fc fusion)
chain: SMLSNAEIKVNPPQDFEIVDPGYLGYLSLQWQPPLFPDNFKECTIEYELKYRNIDSENWKTIITKNLHYKDGFDLNKGIEAKINTLLPAQCTNGSEVRSSWAETTYWTSPQGNRETKIQDMDCVYYNWQYLVCSWKPGMGVHFDTNYQLFYWYEGLDHSAECTDYIKVNGKNMGCRFPYLESSDYKDFYICVNGSSESQPIRPSYFIFQLQNIVKPMPPDYLSLTVKNSEEINLKWNMPKGPIPAKCFIYEIEFTEDGTTWVTTTVENEIQITRTSNESQKLCFLVRSKVNIYCSDDGIWSEWSDEQCWKGDIWKETPKRENGRVPRPPDCPKCPAPEMLGGPSVFIFPPKPKDTLLIARTPEVTCVVVDLDPEDPEVQISWFVDGKQMQTAKTQPREEQFNGTYRVVSVLPIGHQDWLKGKQFTCKVNNKALPSPIERTISKARGQAHQPSVYVLPPSREELSKNTVSLTCLIKDFFPPDIDVEWQSNGQQEPESKYRTTPPQLDEDGSYFLYSKLSVDKSRWQRGDTFICAVMHEALHNHYTQESLSHSPGK
notes: also called cIL-13Rα2-cIgGB-Fc; substitution: None
As to B1, the Kd in experiment [1] amounted to 7020 nM; in experiment [2] it was 16.9 nM.

B2: cIL-13Rα2-cIgGB-Fc-KYT (Fc fusion)
chain: SMLSNAEIKVNPPQDFEIVDPGYLGYLSLQWQPPLFPDNFKECTIEYELKYRNIDSENWKTIITKNLHYKDGFDLNKGIEAKINTLLPAQCTNGSEVRSSWAETTYWTSPQGNRETKIQDMDCVYYNWQYLVCSWKPGMGVHFDTNYQLFYWYEGLDHSAECTDYIKVNGKNMGCRFPYLESSDYKDFYICVNGSSESQPIRPSYFIFQLQNIVKPMPPDYLSLTVKNSEEINLKWNMPKGPIPAKCFIYEIEFTEDGTTWVTTTVENEIQITRTSNESQKLCFLVRSKVNIYCSDDGIWSEWSDEQCWKGDIWKETPKRENGRVPRPPDCPKCPAPEMLGGPSVFIFPPKPKDTLLIARTPEVTCVVVDLDPEDPEVQISWFVDGKQMQTAKTQPREEQFNGTYRVVSVLPIGHQDWLKGKQFTCKVNNKALPSPIERTISKARGQAHQPSVYVLPPSREELSKNTVSLTCLIKDFFPPDIDVEWQSNGQQEPESKYRTTPPQLDEDGSYFLYSKLSVDKSRWQRGDTFICAVMHEALKYHTTQESLSHSPGK
notes: also called cIL-13Ra2-cIgGB-Fc-KYT; H433K/N434Y/Y436T
Turning to B2, the dissociation constant (Kd) in experiment [1] was 253 nM; in experiment [2] it was 2.58 nM.

B3: cIL-13Rα2-cIgGB-Fc-F (Fc fusion)
chain: SMLSNAEIKVNPPQDFEIVDPGYLGYLSLQWQPPLFPDNFKECTIEYELKYRNIDSENWKTIITKNLHYKDGFDLNKGIEAKINTLLPAQCTNGSEVRSSWAETTYWTSPQGNRETKIQDMDCVYYNWQYLVCSWKPGMGVHFDTNYQLFYWYEGLDHSAECTDYIKVNGKNMGCRFPYLESSDYKDFYICVNGSSESQPIRPSYFIFQLQNIVKPMPPDYLSLTVKNSEEINLKWNMPKGPIPAKCFIYEIEFTEDGTTWVTTTVENEIQITRTSNESQKLCFLVRSKVNIYCSDDGIWSEWSDEQCWKGDIWKETPKRENGRVPRPPDCPKCPAPEMLGGPSVFIFPPKPKDTLLIARTPEVTCVVVDLDPEDPEVQISWFVDGKQMQTAKTQPREEQFNGTYRVVSVLPIGHQDWLKGKQFTCKVNNKALPSPIERTISKARGQAHQPSVYVLPPSREELSKNTVSLTCLIKDFFPPDIDVEWQSNGQQEPESKYRTTPPQLDEDGSYFLYSKLSVDKSRWQRGDTFICAVMHEALHFHYTQESLSHSPGK
notes: also called cIL-13Ra2-cIgGB-Fc-F; N434F
Consider B3, for which the Kd in experiment [1] came to 229 nM; in experiment [2], 0.93 nM.

B4: cIL-13Ra2-Fc-YTE (Fc fusion)
chain: SMLSNAEIKVNPPQDFEIVDPGYLGYLSLQWQPPLFPDNFKECTIEYELKYRNIDSENWKTIITKNLHYKDGFDLNKGIEAKINTLLPAQCTNGSEVRSSWAETTYWTSPQGNRETKIQDMDCVYYNWQYLVCSWKPGMGVHFDTNYQLFYWYEGLDHSAECTDYIKVNGKNMGCRFPYLESSDYKDFYICVNGSSESQPIRPSYFIFQLQNIVKPMPPDYLSLTVKNSEEINLKWNMPKGPIPAKCFIYEIEFTEDGTTWVTTTVENEIQITRTSNESQKLCFLVRSKVNIYCSDDGIWSEWSDEQCWKGDIWKETPKRENGRVPRPPDCPKCPAPEMLGGPSVFIFPPKPKDTLYITREPEVTCVVVDLDPEDPEVQISWFVDGKQMQTAKTQPREEQFNGTYRVVSVLPIGHQDWLKGKQFTCKVNNKALPSPIERTISKARGQAHQPSVYVLPPSREELSKNTVSLTCLIKDFFPPDIDVEWQSNGQQEPESKYRTTPPQLDEDGSYFLYSKLSVDKSRWQRGDTFICAVMHEALHNHYTQESLSHSPGK
notes: also called L252Y/A254T/T256E
Regarding B4, the Kd in experiment [1] was 363 nM; in experiment [2], 6.59 nM.

B5: cIL-13Rα2-cIgGB-Fc-DPY (Fc fusion)
chain: SMLSNAEIKVNPPQDFEIVDPGYLGYLSLQWQPPLFPDNFKECTIEYELKYRNIDSENWKTIITKNLHYKDGFDLNKGIEAKINTLLPAQCTNGSEVRSSWAETTYWTSPQGNRETKIQDMDCVYYNWQYLVCSWKPGMGVHFDTNYQLFYWYEGLDHSAECTDYIKVNGKNMGCRFPYLESSDYKDFYICVNGSSESQPIRPSYFIFQLQNIVKPMPPDYLSLTVKNSEEINLKWNMPKGPIPAKCFIYEIEFTEDGTTWVTTTVENEIQITRTSNESQKLCFLVRSKVNIYCSDDGIWSEWSDEQCWKGDIWKETPKRENGRVPRPPDCPKCPAPEMLGGPSVFIFPPKPKDTLLIARDPEVTCVVVDLDPEDPEVQISWFVDGKQMQTAKTQPREEQFNGTYRVVSVLPPGHQDWLKGKQFTCKVNNKALPSPIERTISKARGQAHQPSVYVLPPSREELSKNTVSLTCLIKDFFPPDIDVEWQSNGQQEPESKYRTTPPQLDEDGSYFLYSKLSVDKSRWQRGDTFICAVMHEALHYHYTQESLSHSPGK
notes: also called cIL-13Ra2-cIgGB-Fc-DPY; T256D/I308P/N434Y
Turning to B5, the Kd in experiment [1] is 19.8 nM; in experiment [2], 0.34 nM.

B6: cIL-13Rα2-cIgGB-Fc-K (Fc fusion)
chain: SMLSNAEIKVNPPQDFEIVDPGYLGYLSLQWQPPLFPDNFKECTIEYELKYRNIDSENWKTIITKNLHYKDGFDLNKGIEAKINTLLPAQCTNGSEVRSSWAETTYWTSPQGNRETKIQDMDCVYYNWQYLVCSWKPGMGVHFDTNYQLFYWYEGLDHSAECTDYIKVNGKNMGCRFPYLESSDYKDFYICVNGSSESQPIRPSYFIFQLQNIVKPMPPDYLSLTVKNSEEINLKWNMPKGPIPAKCFIYEIEFTEDGTTWVTTTVENEIQITRTSNESQKLCFLVRSKVNIYCSDDGIWSEWSDEQCWKGDIWKETPKRENGRVPRPPDCPKCPAPEMLGGPSVFIFPPKPKDTLLIARTPEVTCVVVDLDPEDPEVQISWFVDGKQMQTAKTQPREEQFNGTYRVVSVLPIGHQDWLKGKQFTCKVNNKALPSPIERTISKARGQAHQPSVYVLPPSREELSKNTVSLTCLIKDFFPPDIDVEWQSNGQQEPESKYRTTPPQLDEDGSYFLYSKLSVDKSRWQRGDTFICAVMHEALKNHYTQESLSHSPGK
notes: also called cIL-13Ra2-cIgGB-Fc-K; H433K
For the molecule B6, the values for the Kd in experiment [1] and in experiment [2] were 626 nM and 7.55 nM, respectively.

B7: cIL-13Rα2-cIgGB-Fc-DY (Fc fusion)
chain: SMLSNAEIKVNPPQDFEIVDPGYLGYLSLQWQPPLFPDNFKECTIEYELKYRNIDSENWKTIITKNLHYKDGFDLNKGIEAKINTLLPAQCTNGSEVRSSWAETTYWTSPQGNRETKIQDMDCVYYNWQYLVCSWKPGMGVHFDTNYQLFYWYEGLDHSAECTDYIKVNGKNMGCRFPYLESSDYKDFYICVNGSSESQPIRPSYFIFQLQNIVKPMPPDYLSLTVKNSEEINLKWNMPKGPIPAKCFIYEIEFTEDGTTWVTTTVENEIQITRTSNESQKLCFLVRSKVNIYCSDDGIWSEWSDEQCWKGDIWKETPKRENGRVPRPPDCPKCPAPEMLGGPSVFIFPPKPKDTLLIARDPEVTCVVVDLDPEDPEVQISWFVDGKQMQTAKTQPREEQFNGTYRVVSVLPIGHQDWLKGKQFTCKVNNKALPSPIERTISKARGQAHQPSVYVLPPSREELSKNTVSLTCLIKDFFPPDIDVEWQSNGQQEPESKYRTTPPQLDEDGSYFLYSKLSVDKSRWQRGDTFICAVMHEALHYHYTQESLSHSPGK
notes: also called cIL-13Ra2-cIgGB-Fc-DY; T256D/N434Y
As for B7, the results for the Kd in experiment [1] and in experiment [2] were 91.8 nM and 0.87 nM, respectively.

B8: cIL-13Rα2-cIgGB-Fc-KF (Fc fusion)
chain: SMLSNAEIKVNPPQDFEIVDPGYLGYLSLQWQPPLFPDNFKECTIEYELKYRNIDSENWKTIITKNLHYKDGFDLNKGIEAKINTLLPAQCTNGSEVRSSWAETTYWTSPQGNRETKIQDMDCVYYNWQYLVCSWKPGMGVHFDTNYQLFYWYEGLDHSAECTDYIKVNGKNMGCRFPYLESSDYKDFYICVNGSSESQPIRPSYFIFQLQNIVKPMPPDYLSLTVKNSEEINLKWNMPKGPIPAKCFIYEIEFTEDGTTWVTTTVENEIQITRTSNESQKLCFLVRSKVNIYCSDDGIWSEWSDEQCWKGDIWKETPKRENGRVPRPPDCPKCPAPEMLGGPSVFIFPPKPKDTLLIARTPEVTCVVVDLDPEDPEVQISWFVDGKQMQTAKTQPREEQFNGTYRVVSVLPIGHQDWLKGKQFTCKVNNKALPSPIERTISKARGQAHQPSVYVLPPSREELSKNTVSLTCLIKDFFPPDIDVEWQSNGQQEPESKYRTTPPQLDEDGSYFLYSKLSVDKSRWQRGDTFICAVMHEALKFHYTQESLSHSPGK
notes: also called cIL-13Ra2-cIgGB-Fc-KF; H433K/N434F
Consider B8, for which the results for the Kd in experiment [1] and in experiment [2] were 414 nM and 0.97 nM, respectively.
